Experimental findings from article PMC3049778 are described below.

The target of this assay is GST-H486R optineurin (human) (UniProt Q96CV9). Kind of assay: pull-down; GST-optineurin or GST-H486R on glutathione agarose beads incubated 6-8 hours with lysates of HeLa cells transfected with HA-CYLD; anti-HA immunoblot. (In general: Immunoblotting shows a protein as a band on a membrane.)
Sequence of UniProt Q96CV9 (Q96CV9 whole entry H486R): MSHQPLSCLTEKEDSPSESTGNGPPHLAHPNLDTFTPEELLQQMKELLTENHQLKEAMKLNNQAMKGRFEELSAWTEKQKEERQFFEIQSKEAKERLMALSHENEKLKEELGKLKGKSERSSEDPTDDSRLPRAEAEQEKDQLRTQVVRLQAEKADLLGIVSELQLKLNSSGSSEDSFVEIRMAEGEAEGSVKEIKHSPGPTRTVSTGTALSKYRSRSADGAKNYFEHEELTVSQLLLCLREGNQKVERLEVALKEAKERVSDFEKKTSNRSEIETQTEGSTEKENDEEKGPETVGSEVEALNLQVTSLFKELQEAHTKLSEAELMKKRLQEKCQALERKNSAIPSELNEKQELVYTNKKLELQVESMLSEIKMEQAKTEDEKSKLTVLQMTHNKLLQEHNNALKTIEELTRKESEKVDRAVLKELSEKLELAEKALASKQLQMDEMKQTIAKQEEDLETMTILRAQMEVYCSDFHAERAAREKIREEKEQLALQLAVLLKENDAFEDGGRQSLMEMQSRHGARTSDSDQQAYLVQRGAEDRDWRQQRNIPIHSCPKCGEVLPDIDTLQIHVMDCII

Regarding “HA-tagged CYLD (CYLD cDNA obtained in the yeast two-hybrid screen, in pCDNA3.1-HA) (from UniProt Q9NQC7 403-956) (domain or fragment)”, the fold less binding than wild type optineurin came out at 5 fold.
